B1: OVA-FLIPr fusion protein (other)
chain: MGSIGAASMEFCFDVFKELKVHHANENIFYCPIAIMSALAMVYLGAKDSTRTQINKVVRFDKLPGFGDSIEAQCGTSVNVHSSLRDILNQITKPNDVYSFSLASRLYAEERYPILPEYLQCVKELYRGGLEPINFQTAADQARELINSWVESQTNGIIRNVLQPSSVDSQTAMVLVNAIVFKGLWEKAFKDEDTQAMPFRVTEQESKPVQMMYQIGLFRVASMASEKMKILELPFASGTMSMLVLLPDEVSGLEQLESIINFEKLTEWTSSNVMEERKIKVYLPRMKMEEKYNLTSVLMAMGITDVFSSSANLSGISSAESLKISQAVHAAHAEINEAGREVVGSAEAGVDAASVSEEFRADHPFLFCIKHIATNAVLFFGRCVSPGGGGSGGGGSGGGGSFFSYEWKGLEIAKNLADQAKKDDERIDKLMKESDKNLTPYKAETVNDLYLIVKKLSQGDVKKAVVRIKDGGPRDYYTFDLTRPLEENRKNIKVVKNGEIDSIYWDLEHHHHHH
notes: Expressed in E. coli from pET-22b(+) and purified by IMAC; also called recombinant OVA-FLIPr fusion protein
B2: biotin-conjugated recombinant FcγRI (receptor)
chain: QVDTTKAVITLQPPWVSVFQEETVTLHCEVLHLPGSSSTQWFLNGTATQTSTPSYRITSASVNDSGEYRCQRGLSGRSDPIQLEIHRGWLLLQVSSRVFTEGEPLALRCHAWKDKLVYNVLYYRNGKAFKFFHWNSNLTILKTNISHNGTYHCSGMGKHRYTSAGISVTVKELFPAPVLNASVTSPLLEGNLVTLSCETKLLLQRPGLQLYFSFYMGSKTLRGRNTSSEYQILTARREDSGLYWCEAATEDGNVLKRSPELELQVLGLQLPTP
modifications: biotin-conjugated
B3: biotin-conjugated recombinant FcγRIIb (receptor)
chain: APPKAVLKLEPQWINVLQEDSVTLTCRGTHSPESDSIQWFHNGNLIPTHTQPSYRFKANNNDSGEYTCQTGQTSLSDPVHLTVLSEWLVLQTPHLEFQEGETIVLRCHSWKDKPLVKVTFFQNGKSKKFSRSDPNFSIPQANHSHSGDYHCTGNIGYTLYSSKPVTITVQAP
modifications: biotin-conjugated
B4: biotin-conjugated recombinant FcγRIIa-H131 (receptor)
chain: AAPPKAVLKLEPPWINVLQEDSVTLTCQGARSPESDSIQWFHNGNLIPTHTQPSYRFKANNNDSGEYTCQTGQTSLSDPVHLTVLSEWLVLQTPHLEFQEGETIMLRCHSWKDKPLVKVTFFQNGKSQKFSHLDPTFSIPQANHSHSGDYHCTGNIGYTLFSSKPVTITVQVPSMGSSSPMGI
modifications: biotin-conjugated
notes: The H131 allotype name implies the human receptor
B5: OVA-FLIPr-like fusion protein (other)
chain: MGSIGAASMEFCFDVFKELKVHHANENIFYCPIAIMSALAMVYLGAKDSTRTQINKVVRFDKLPGFGDSIEAQCGTSVNVHSSLRDILNQITKPNDVYSFSLASRLYAEERYPILPEYLQCVKELYRGGLEPINFQTAADQARELINSWVESQTNGIIRNVLQPSSVDSQTAMVLVNAIVFKGLWEKAFKDEDTQAMPFRVTEQESKPVQMMYQIGLFRVASMASEKMKILELPFASGTMSMLVLLPDEVSGLEQLESIINFEKLTEWTSSNVMEERKIKVYLPRMKMEEKYNLTSVLMAMGITDVFSSSANLSGISSAESLKISQAVHAAHAEINEAGREVVGSAEAGVDAASVSEEFRADHPFLFCIKHIATNAVLFFGRCVSPGGGGSGGGGSGGGGSFFSYEWKGLEIAKNLADQAKKDDERADKLIKEADEKNEHYKGKTVEDLYVIAKKMGKGNTIAVVKIKDGGKNGYYTFDITRPLEEHRKNIPVVKNGEIDSITWYLEHHHHHH
notes: Expressed in E. coli from pET-22b(+) and purified by IMAC; also called recombinant OVA-FLIPr-like fusion protein

Assays:
[1] = molecular target: T1, biotin-conjugated recombinant FcγRIIIa-F158 (UniProt P08637 17-208, biotin-conjugated); test: ELISA, coated fusion protein, biotin-conjugated FcγR in solution
T1 construct: The F158 allotype name implies the human receptor

[2] = molecular target: T2, biotin-conjugated recombinant FcγRIIIa-V158 (UniProt P08637 17-208); test: as above
T2 construct: The V158 allotype name implies the human receptor

[3] = molecular target: B4; test: as above
[4] = molecular target: T3, recombinant ovalbumin (OVA) (Gallus gallus (Chicken), UniProt P01012 1-386); test: ELISA, plate coated with recombinant protein at 1 µg/mL, serial dilution of biotin-conjugated FcγR, streptavidin-HRP
T3 sequence: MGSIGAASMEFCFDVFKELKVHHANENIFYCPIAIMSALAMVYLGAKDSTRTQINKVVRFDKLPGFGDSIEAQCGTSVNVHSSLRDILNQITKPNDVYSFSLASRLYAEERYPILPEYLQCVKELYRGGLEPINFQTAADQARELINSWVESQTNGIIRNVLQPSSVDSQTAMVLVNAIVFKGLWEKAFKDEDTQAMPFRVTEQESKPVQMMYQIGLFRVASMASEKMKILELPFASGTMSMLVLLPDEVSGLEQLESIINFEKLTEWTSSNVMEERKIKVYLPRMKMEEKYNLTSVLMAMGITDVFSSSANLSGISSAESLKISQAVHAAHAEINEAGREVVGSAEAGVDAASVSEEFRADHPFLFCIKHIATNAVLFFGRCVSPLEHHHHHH

T2 sequence (P08637 17-208 F176V limits assumed): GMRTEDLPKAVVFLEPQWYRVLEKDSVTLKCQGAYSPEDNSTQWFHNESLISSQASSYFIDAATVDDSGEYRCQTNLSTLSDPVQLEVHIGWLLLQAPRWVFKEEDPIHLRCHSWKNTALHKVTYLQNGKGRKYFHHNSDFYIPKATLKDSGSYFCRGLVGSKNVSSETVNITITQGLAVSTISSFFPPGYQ
T1 sequence (P08637 17-208 limits assumed): as the sequence (P08637 17-208 F176V limits assumed) above, with V160F counted along it

Binder	binding result [1]	binding result [2]	binding result [3]	binding result [4]
B1	binds	binds	binds	–
B2	–	–	–	no binding
B3	–	–	–	no binding
B4	–	–	–	no binding
B5	binds	binds	binds	–

Source: patent publication US20190321456A1 (NATIONAL HEALTH RESEARCH INSTITUTES, published 2019)
